Data reported in PMC9402538, “Rational design of a sensitivity-enhanced tracer for discovering efficient APC–Asef inhibitors” (Nature Communications, 2022).
Primed or numbered codes have the meaning given here. [ ]: non-standard residue; d: D form. The star is where a group is joined. FITC = O=C1OC2(c3ccc(O)cc3Oc3cc(O)ccc32)c2ccc(NC(=S)*)cc21; Phe(4-tBu) = CC(C)(C)c1ccc(C[C@H](N)C(=O)O)cc1; Bpa = N[C@@H](Cc1ccc(C(=O)c2ccccc2)cc1)C(=O)O; Ala(cPent) = N[C@@H](CC1CCCC1)C(=O)O; FITC′ = fluorescein isothiocyanate; hLeu = CC(C)CC[C@H](N)C(=O)O; 2Furoyl = O=C(c1ccco1)*; Cbz = O=C(OCc1ccccc1)*; Bz = O=C(c1ccccc1)*

What was measured:
Settings in all cases: both partners purified
APC (303-739) [1] = biological target: T1, APC (303-739) (UniProt P25054 303-739); assay: fluorescence polarisation; direct binding: tracer fixed at 20 nM, range of concentrations of APC (303-739), read after 1.5 h; EC50 by nonlinear regression
T1 construct: adenomatous polyposis coli (APC), residues 303-739; pET28a construct; also called APC WT; adenomatous polyposis coli; source: E. coli BL21 (DE3), purified (Ni-NTA)
T1 sequence (looked up): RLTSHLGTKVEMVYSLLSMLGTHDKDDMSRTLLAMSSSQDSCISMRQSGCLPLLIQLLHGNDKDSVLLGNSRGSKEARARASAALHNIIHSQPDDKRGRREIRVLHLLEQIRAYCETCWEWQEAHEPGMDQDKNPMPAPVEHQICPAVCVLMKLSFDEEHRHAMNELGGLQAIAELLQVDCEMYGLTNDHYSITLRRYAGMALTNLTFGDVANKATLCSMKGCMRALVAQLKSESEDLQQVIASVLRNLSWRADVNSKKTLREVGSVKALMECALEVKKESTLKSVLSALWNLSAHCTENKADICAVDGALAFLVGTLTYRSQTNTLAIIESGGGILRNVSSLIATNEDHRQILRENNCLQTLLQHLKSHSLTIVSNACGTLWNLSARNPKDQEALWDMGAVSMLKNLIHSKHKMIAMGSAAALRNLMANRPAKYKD

APC (303-739) [2] = biological target: T1, APC (303-739); assay: fluorescence polarisation; competition with tracer 1: APC (303-739) 1.0 μM and tracer 1 20 nM (Table 2), serial dilution of peptide
APC (303-739) [3] = biological target: T1, APC (303-739); assay: fluorescence polarisation; competition with tracer 7: 25 nM APC (303-739), serial dilution of peptide, 20 nM tracer 7; 50 mM HEPES pH 7.5, 300 mM NaCl, 1 mM EDTA, 1 mM DTT; room temperature
APC (303–739) [4] = biological target: T2, APC (303–739) (UniProt P25054 303-739); assay: fluorescence polarisation; direct binding: tracer fixed at 20 nM, a range of concentrations of APC (303–739), read after 1.5 h; EC50 by nonlinear regression
T2 construct: adenomatous polyposis coli (APC), residues 303–739; The methods name this construct for FP and SPR; the ITC methods say only 'APC protein'; Plasmid was a gift (Dr. Geng Wu); pET28a; also called APC WT; adenomatous polyposis coli; source: E. coli BL21 (DE3), purified (Ni-NTA)
T2 sequence (looked up): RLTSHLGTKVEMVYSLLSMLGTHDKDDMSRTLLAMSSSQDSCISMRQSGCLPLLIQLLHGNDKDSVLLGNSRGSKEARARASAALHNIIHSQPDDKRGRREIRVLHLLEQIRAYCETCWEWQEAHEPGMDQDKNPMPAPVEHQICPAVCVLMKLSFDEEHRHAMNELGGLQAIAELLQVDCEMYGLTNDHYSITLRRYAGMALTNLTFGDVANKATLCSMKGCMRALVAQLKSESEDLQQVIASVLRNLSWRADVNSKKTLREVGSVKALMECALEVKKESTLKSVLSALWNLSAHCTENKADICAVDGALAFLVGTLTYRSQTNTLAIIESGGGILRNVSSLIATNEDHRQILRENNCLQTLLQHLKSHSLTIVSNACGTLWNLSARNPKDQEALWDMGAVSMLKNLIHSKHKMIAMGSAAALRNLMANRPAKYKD

APC (303-739) [5] = biological target: T1, APC (303-739); assay: ITC; APC protein in the cell at 10-20 μM, peptide injected at 100-200 μM; 50 mM HEPES pH 7.5, 300 mM NaCl, 1 mM EDTA; 30 °C; single-site model
MAI-516 = biological target: T3, MAI-516 (N-terminal 4-methoxy-phenyl group (R^1)); assay: ITC; MicroCal ITC200, 30 °C; 50 mM HEPES pH 7.5, 300 mM NaCl, 1 mM EDTA; APC in the cell at 10–20 μM, peptide injected at 100–200 μM; single-site model
T3 construct: peptidomimetic; the text names its residues A181, G182, E183, S184, L185 and Y186 (Asef numbering); source: synthetic peptide (Supplementary Methods)

APC (303–739) [6] = biological target: T2, APC (303–739); assay: as above

B1: tracer 12 (peptide)
peptide: Cbz-AGESLYEGGGGGK(FITC′)-NH2
notes: source: synthetic peptide (general procedure B; FITC-labeled tracer peptides obtained from Changzhou Kanglong Biotech)
EC50 (APC (303-739) [1]): 51 nM

B2: MAI-453 (peptide)
chain: {benzofuran‑2‑carbonyl}-AGESLYE-NH2
IC50 (APC (303-739) [2]): 460 ± 140 nM | IC50 (APC (303-739) [3]): 260 ± 10 nM

B3: tracer 6 (Z–AGESLYENELISDGK[FITC]–NH2) (peptide)
peptide: Cbz-AGESLYENELISDGK(FITC′)-NH2
notes: tracer 3 with its first two residues GG replaced by a benzyloxycarbonyl (Z) group; source: synthetic peptide, bought: Changzhou Kanglong Biotech Ltd
EC50 (APC (303–739) [4]): 40 nM

B4: tracer 8 (peptide)
peptide: Cbz-AGESLYENELISK(FITC′)-NH2
notes: as for B1
EC50 (APC (303-739) [1]): 41 nM

B5: MAI-459 (peptide)
chain: {2‑chloropyrimidine‑4‑carbonyl}-AGESLYE-NH2
IC50 (APC (303-739) [2]): 600 ± 120 nM | IC50 (APC (303-739) [3]): 840 ± 30 nM

B6: tracer 10 (peptide)
peptide: Cbz-AGESLYENK(FITC′)-NH2
notes: as for B1
EC50 (APC (303-739) [1]): 52 nM

B7: tracer 14 (peptide)
peptide: Cbz-AGESLYEGK(FITC′)-NH2
notes: as for B1
EC50 (APC (303-739) [1]): 50 nM

B8: tracer 7 (peptide)
peptide: Cbz-AGESLYEK(FITC)-NH2
notes: designed from the Asef hot spot 181-187; the systematic name on D1:p12 gives (R) at the lysine carbon; source: synthetic peptide (general procedure B; FITC-labeled tracer peptides obtained from Changzhou Kanglong Biotech)
stoichiometry N (APC (303-739) [5]): 1.6

B9: MAI-451 (peptide)
chain: {morpholine‑4‑carbonyl}-AGESLYE-NH2
IC50 (APC (303-739) [2]): 390 ± 120 nM | IC50 (APC (303-739) [3]): 270 ± 5 nM

B10: APC W593A, N641A (domain or fragment)
chain: RLTSHLGTKVEMVYSLLSMLGTHDKDDMSRTLLAMSSSQDSCISMRQSGCLPLLIQLLHGNDKDSVLLGNSRGSKEARARASAALHNIIHSQPDDKRGRREIRVLHLLEQIRAYCETCWEWQEAHEPGMDQDKNPMPAPVEHQICPAVCVLMKLSFDEEHRHAMNELGGLQAIAELLQVDCEMYGLTNDHYSITLRRYAGMALTNLTFGDVANKATLCSMKGCMRALVAQLKSESEDLQQVIASVLRNLSWRADVNSKKTLREVGSVKALMECALEVKKESTLKSVLSALANLSAHCTENKADICAVDGALAFLVGTLTYRSQTNTLAIIESGGGILRAVSSLIATNEDHRQILRENNCLQTLLQHLKSHSLTIVSNACGTLWNLSARNPKDQEALWDMGAVSMLKNLIHSKHKMIAMGSAAALRNLMANRPAKYKD
Kd (MAI-516): 860 nM

B11: MAI-465 (peptide)
chain: Bz-AGESLY[dE]-NH2
IC50 (APC (303-739) [2]): 750 ± 150 nM | IC50 (APC (303-739) [3]): 1000 ± 30 nM

B12: tracer 2 (Ac–GGAGEALAINELISDGK[FITC]–NH2) (peptide)
peptide: Ac-GGAGEALAINELISDGK(FITC′)-NH2
notes: designed from tracer 1 (Asef stretch) by changing residues of the hot spot GGEQLAI; source: synthetic peptide, bought: Changzhou Kanglong Biotech Ltd
EC50 (APC (303–739) [4]): 180 nM

B13: MAI-456 (peptide)
chain: {2‑(methylthio)pyrimidine‑4‑carbonyl}-AGESLYE-NH2
IC50 (APC (303-739) [2]): 570 ± 120 nM | IC50 (APC (303-739) [3]): 990 ± 60 nM

B14: MAI-466 (peptide)
chain: 2Furoyl-AGESLY[Phe(4-tBu)]-NH2
SMILES: CC(C)C[C@H](NC(=O)[C@H](CO)NC(=O)[C@H](CCC(=O)O)NC(=O)CNC(=O)[C@H](C)NC(=O)c1ccco1)C(=O)N[C@@H](Cc1ccc(O)cc1)C(=O)N[C@@H](Cc1ccc(C(C)(C)C)cc1)C(N)=O
IC50 (APC (303-739) [2]): 810 ± 200 nM | IC50 (APC (303-739) [3]): 940 ± 30 nM

B15: tracer 7 (Z–AGESLYEK[FITC]–NH2) (peptide)
peptide: Cbz-AGESLYEK(FITC)-NH2
notes: tracer 6 with a shortened linker; source: synthetic peptide, bought: Changzhou Kanglong Biotech Ltd
Kd (APC (303–739) [6]): 78 nM | EC50 (APC (303–739) [4]): 16 nM

B16: tracer 3 (Ac–GGAGESLYENELISDGK[FITC]–NH2) (peptide)
peptide: Ac-GGAGESLYENELISDGK(FITC′)-NH2
notes: as for B12
EC50 (APC (303–739) [4]): 68 nM

B17: tracer 5 (Ac–EGAGESLYENELISDGK[FITC]–NH2) (peptide)
peptide: Ac-EGAGESLYENELISDGK(FITC′)-NH2
notes: tracer 3 with its first residue replaced; source: synthetic peptide, bought: Changzhou Kanglong Biotech Ltd
EC50 (APC (303–739) [4]): 46 nM

B18: tracer 4 (Ac–YGAGESLYENELISDGK[FITC]–NH2) (peptide)
peptide: Ac-YGAGESLYENELISDGK(FITC′)-NH2
notes: as for B17
EC50 (APC (303–739) [4]): 48 nM

B19: MAI-455 (peptide)
chain: {oxazole‑2‑carbonyl}-AGESLYE-NH2
IC50 (APC (303-739) [2]): 530 ± 120 nM | IC50 (APC (303-739) [3]): 860 ± 30 nM

B20: MAI-454 (peptide)
chain: {furan‑2‑carbonyl}-AGESLY[Bpa]-NH2
IC50 (APC (303-739) [2]): 480 ± 150 nM | IC50 (APC (303-739) [3]): 280 ± 10 nM

B21: tracer 9 (peptide)
peptide: Cbz-AGESLYENELK(FITC′)-NH2
notes: as for B1
EC50 (APC (303-739) [1]): 47 nM

B22: MAI-464 (peptide)
chain: {pyrimidine‑4‑carbonyl}-AGESLYE-NH2
IC50 (APC (303-739) [2]): 740 ± 160 nM | IC50 (APC (303-739) [3]): 220 ± 10 nM

B23: MAI-460 (peptide)
chain: {oxazole‑5‑carbonyl}-AGESLYE-NH2
IC50 (APC (303-739) [2]): 620 ± 190 nM | IC50 (APC (303-739) [3]): 550 ± 9 nM

B24: tracer 13 (peptide)
peptide: Cbz-AGESLYEGGGK(FITC′)-NH2
notes: as for B1
EC50 (APC (303-739) [1]): 48 nM

B25: MAI-461 (peptide)
chain: Bz-AGES[Ala(cPent)]YE-NH2
SMILES: C[C@H](NC(=O)c1ccccc1)C(=O)NCC(=O)N[C@@H](CCC(=O)O)C(=O)N[C@@H](CO)C(=O)N[C@@H](CC1CCCC1)C(=O)N[C@@H](Cc1ccc(O)cc1)C(=O)N[C@@H](CCC(=O)O)C(N)=O
IC50 (APC (303-739) [2]): 630 ± 200 nM | IC50 (APC (303-739) [3]): 80 ± 3 nM

B26: MAI-467 (peptide)
chain: Bz-AGESLYE-NH2
IC50 (APC (303-739) [2]): 820 ± 300 nM | IC50 (APC (303-739) [3]): 320 ± 7 nM

B27: tracer 1 (Ac–GGGGEQLAINELISDGK[FITC]–NH2) (peptide)
peptide: Ac-GGGGEQLAINELISDGK(FITC)-NH2
notes: stretch of Asef (Rho guanine nucleotide exchange factor 4); lysine that carries FITC; source: synthetic peptide, bought: Changzhou Kanglong Biotech Ltd
Kd (APC (303–739) [6]): 580 nM | EC50 (APC (303–739) [4]): 540 nM

B28: tracer 11 (peptide)
peptide: Cbz-AGESLYEGGGGGGGK(FITC′)-NH2
notes: as for B1
EC50 (APC (303-739) [1]): 53 nM

B29: MAI-457 (peptide)
chain: Bz-AGESLY[Bpa]-NH2
SMILES: CC(C)C[C@H](NC(=O)[C@H](CO)NC(=O)[C@H](CCC(=O)O)NC(=O)CNC(=O)[C@H](C)NC(=O)c1ccccc1)C(=O)N[C@@H](Cc1ccc(O)cc1)C(=O)N[C@@H](Cc1ccc(C(=O)c2ccccc2)cc1)C(N)=O
IC50 (APC (303-739) [2]): 590 ± 200 nM | IC50 (APC (303-739) [3]): 92 ± 3 nM

B30: MAI-426 (peptide)
chain: Cbz-AGES[hLeu]YE-NH2
IC50 (APC (303-739) [2]): 840 ± 190 nM | IC50 (APC (303-739) [3]): 1200 ± 60 nM
